B1: L-asparaginase, Q8TZE8 (parent)
chain: MKILLIGMGGTIASVKGENGYEASLSVKEVLDIAGIKDCEDCDFLDLKNVDSTLIQPEDWVDLAETLYKNVKKYDGIIVTHGTDTLAYTSSMISFMLRNPPIPIVFTGSMIPATEENSDAPLNLQTAIKFATSGIRGVYVAFNGKVMLGVRTSKVRTMSRDAFESINYPIIAELRGEDLVVNFIPKFNNGEVTLDLRHDPKVLVIKLIPGLSGDIFRAAVELGYRGIVIEGYGAGGIPYRGSDLLQTIEELSKEIPIVMTTQAMYDGVDLTRYKVGRLALRAGVIPAGDMTKEATVTKLMWILGHTNNVEEIKVLMRKNLVGELRD

In the data set the parent is B1. The settings on record: Pyrococcus furiosus (strain ATCC 43587 / DSM 3638 / JCM 8422 / Vc1); pH 8; 60 °C; GdnHCl; Fluorescence; Tris; NaCl; transition: 2; reversible: yes; structure 4Q0M; whole UniProt chain shown.

With MKILLIGMGGTIASVKGENGYEASLSVKEVLDIAGIKDCEDCDFLDLKNVDSTLIQPEDWVDLAETLYKNVKKYDGIIVTHGTDTLAYTSSMISFMLRNPPIPIVFTGSMIPATEENSDAPLNLQTAIKFATSGIRGVYVAFNGKVMLGVRTSKVRTMSRDAFESINYPIIAELRGEDLVVNFIPKFNNGEVTLDLRHDPKVLVIKLIPGLSGDIFRAAVELGYRGIVIEGYGAGGIPYRGSDLLQTIEELSKEIPIVMTTQAMYDGVDLTRYKVGRLALRAGVIPAGDMTKEATVTKLMFILGHTNNVEEIKVLMRKNLVGELRD [W301F], the “ddG of mutation (higher = less stable)” value is -3.98 kcal/mol, the denaturant m value amounted to 6.21 kcal/mol/M, the “denaturant midpoint (higher = more stable)” value turned out to be 3.18 M and the unfolding free energy is 19.7 kcal/mol.
For MKILLIGMGGTIASVKGENGYEASLSVKEVLDIAGIKDCEDCDFLDLKNVDSTLIQPEDFVDLAETLYKNVKKYDGIIVTHGTDTLAYTSSMISFMLRNPPIPIVFTGSMIPATEENSDAPLNLQTAIKFATSGIRGVYVAFNGKVMLGVRTSKVRTMSRDAFESINYPIIAELRGEDLVVNFIPKFNNGEVTLDLRHDPKVLVIKLIPGLSGDIFRAAVELGYRGIVIEGYGAGGIPYRGSDLLQTIEELSKEIPIVMTTQAMYDGVDLTRYKVGRLALRAGVIPAGDMTKEATVTKLMWILGHTNNVEEIKVLMRKNLVGELRD [W60F], the denaturant m value is 4.23 kcal/mol/M, the “denaturant midpoint (higher = more stable)” value turned out to be 2.82 M and the unfolding free energy was 11.9 kcal/mol.
